Target: BAG3 (Bcl-2 associated athanogene protein 3) (human) (UniProt O95817)
Assay: SPR; BIACORE X; BAG3 amine-coupled to a CM5 chip (3400 RU); running buffer 10 mM HEPES pH 7.4, 150 mM NaCl, 3 mM EDTA, 0.005% P20; 10 uL/min; Langmuir 1:1 fit

BAG3 (Bcl-2 associated athanogene protein 3), O95817 1-575 (natural protein; other documents disagree on this pair), sequence (O95817 whole entry): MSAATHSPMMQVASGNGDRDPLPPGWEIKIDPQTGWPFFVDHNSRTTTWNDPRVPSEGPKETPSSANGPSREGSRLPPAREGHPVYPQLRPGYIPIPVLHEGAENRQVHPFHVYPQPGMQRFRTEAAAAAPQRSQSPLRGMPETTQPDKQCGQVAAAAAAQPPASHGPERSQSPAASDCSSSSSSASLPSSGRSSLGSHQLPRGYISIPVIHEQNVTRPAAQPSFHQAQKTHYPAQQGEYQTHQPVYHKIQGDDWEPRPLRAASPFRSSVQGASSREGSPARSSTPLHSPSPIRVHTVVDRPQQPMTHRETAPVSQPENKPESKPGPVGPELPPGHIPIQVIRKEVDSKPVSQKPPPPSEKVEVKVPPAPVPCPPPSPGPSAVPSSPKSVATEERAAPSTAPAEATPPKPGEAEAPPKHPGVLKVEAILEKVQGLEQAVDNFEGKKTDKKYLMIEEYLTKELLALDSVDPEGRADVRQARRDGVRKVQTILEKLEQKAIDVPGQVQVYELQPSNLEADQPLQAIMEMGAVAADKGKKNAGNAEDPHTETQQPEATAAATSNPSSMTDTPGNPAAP

Ka: 5.3e+07 M⁻¹
Kd: 19 nM
koff: 0.0003 s⁻¹
kon: 16000 M⁻¹ s⁻¹
Substance: BAG3 (Bcl-2 associated athanogene protein 3), O95817 1-575 (natural protein; other documents disagree on this pair)

Reference: paper PMC10273338
